Assay results: patent publication US20240277762A1 (published 2024)

Key:
[1] = biological target: T1, PRAME peptide on HLA-A*02:09 (human); assay: cytokine release
T1 peptide: SLLQHLIGL

[2] = biological target: T2, PRAME peptide on HLA-A*02:02 (human); assay: cytokine release
T2 peptide: SLLQHLIGL

[3] = biological target: T3, PRAME peptide on HLA-A*02:04 (human); assay: cytokine release
T3 peptide: SLLQHLIGL

[4] = biological target: T4, PRAME peptide on HLA-A*02:01 (human); assay: killing
T4 peptide: SLLQHLIGL

binding result [1]: recognises | binding result [2]: recognises | binding result [3]: recognises
B1: T23.8-2.1-027-004 (TCR, V domains shown)
Valpha: GQQLNQSPQSMFIQEGEDVSMNCTSSSIFNTWLWYKQDPGEGPVLLIALYKAGELTSNGRLTAQFGITRKDSFLNISASIPSDVGIYFCAGLADYGGSQGNLIFGKGTKLSVKP
Vbeta: DSGVTQTPKHLITATGQRVTLRCSPRSGDLSVYWYQQSLDQGLQFLIQYYNGEERAKGNILERFSAQQFPDLHSELNLSSLELGDSALYFCASSVWASGGYEQYFGPGTRLTVT
binding result [4]: recognises
